For test [1], the target named is rHuman ErbB2/Fc Chimera, CF (R&D Systems Cat#1129-ER) (human) (UniProt P04626). The experiment in a line: MSD ECL multi-spot assay, antigen spotted on plate, Fab […]; blank spot 2877.
In test [2] the target is rHuman HGF R/c-MET/Fc Chimera, CF (R&D Systems Cat#358-MT/CF) (human) (UniProt P08581). Described as above.
Test [3] has as its target rHuman IGF-1 sR (IGF-1 sR), CF (R&D Systems Cat#391-GR) (human) (UniProt P08069). The description is as above.
The target of test [4] is rHuman CD44/Fc Chimera, CF (R&D Systems Cat#3660-CD) (human) (UniProt P16070). Put plainly: MSD ECL multi-spot, Fab 0.43 uM, blank 879.
Test [5] addresses rHuman EGF R/Fc Chimera, CF (R&D Systems Cat#344-ER) (human) (UniProt P00533). The experiment in a line: MSD ECL multi-spot, Fab 0.43 uM, blank 879.
Test [6] has as its target rHuman HGF R/c-MET/Fc Chimera, CF (R&D Systems Cat#358-MT/CF) (human) (UniProt P08581). The experiment in a line: MSD ECL multi-spot, Fab 0.43 uM, blank 879.
Test [7] has as its target Recombinant Human DLL4 (R&D Systems Cat#1506-D4/CF) (human) (UniProt Q9NR61). Put plainly: ECL (MSD Multi-Spot) binding, antigen spotted on plate, Fab at […]; blank spot 250.
For test [8] the target is unchanged. The experiment in a line: ECL (MSD Multi-Spot) binding, antigen spotted on plate, Fab at […]; blank spot 294.
Test [9] addresses rHuman P-Cadherin/Fc Chimera, CF (R&D Systems Cat#861-PC) (human) (UniProt P22223). Described as above.
The target in test [10] is Recombinant Human DLL4 (R&D Systems Cat#1506-D4/CF) (human) (UniProt Q9NR61). The experiment in a line: ECL (MSD Multi-Spot) binding, antigen spotted on plate, Fab at 125 nM; blank spot 403.
For test [11] the target is unchanged. The experiment in a line: ECL (MSD Multi-Spot) binding, antigen spotted on plate, Fab at 250 nM; blank spot 590.
In test [12] the target is rHuman P-Cadherin/Fc Chimera, CF (R&D Systems Cat#861-PC) (human) (UniProt P22223). The description is as above.
In test [13] the target is Recombinant Human DLL4 (R&D Systems Cat#1506-D4/CF) (human) (UniProt Q9NR61). The experiment in a line: ECL (MSD Multi-Spot) binding, antigen spotted on plate, Fab at 500 nM; blank spot 680.
Test [14] deals with rHuman P-Cadherin/Fc Chimera, CF (R&D Systems Cat#861-PC) (human) (UniProt P22223). The description is as above.
Test [15] has as its target Recombinant Human DLL4 (R&D Systems Cat#1506-D4/CF) (human) (UniProt Q9NR61). Put plainly: ECL (MSD Multi-Spot) binding, antigen spotted on plate, Fab at 7.8 nM; blank spot 316.
In test [16] the target is rHuman P-Cadherin/Fc Chimera, CF (R&D Systems Cat#861-PC) (human) (UniProt P22223). The test is described as above.
Test [17] deals with Recombinant Human DLL4 (R&D Systems Cat#1506-D4/CF) (human) (UniProt Q9NR61). The experiment in a line: ECL (MSD Multi-Spot) binding, antigen spotted on plate, Fab at 62.5 nM; blank spot 268.
The target in test [18] is rHuman P-Cadherin/Fc Chimera, CF (R&D Systems Cat#861-PC) (human) (UniProt P22223). Described as above.
For test [19], the target named is Recombinant Human DLL4 (R&D Systems Cat#1506-D4/CF) (human) (UniProt Q9NR61). Put plainly: ECL (MSD Multi-Spot) binding, antigen spotted on plate, Fab at 1000 nM; blank spot 1133.
For test [20], the target named is rHuman P-Cadherin/Fc Chimera, CF (R&D Systems Cat#861-PC) (human) (UniProt P22223). The test is described as above.
The target in test [21] is rHuman EGF R/Fc Chimera, CF (R&D Systems Cat#344-ER) (human) (UniProt P00533). The experiment in a line: MSD ECL multi-spot assay, antigen spotted on plate, Fab 0.51 uM; blank spot 1393.
For test [22], the target named is rHuman Erythropoietin R/Fc Chimera, CF (R&D Systems Cat#963-ER) (human) (UniProt P19235). The description is as above.
rHuman Erythropoietin R/Fc Chimera, CF (R&D Systems Cat#963-ER) (human), sequence (P19235 25-250, change not shown): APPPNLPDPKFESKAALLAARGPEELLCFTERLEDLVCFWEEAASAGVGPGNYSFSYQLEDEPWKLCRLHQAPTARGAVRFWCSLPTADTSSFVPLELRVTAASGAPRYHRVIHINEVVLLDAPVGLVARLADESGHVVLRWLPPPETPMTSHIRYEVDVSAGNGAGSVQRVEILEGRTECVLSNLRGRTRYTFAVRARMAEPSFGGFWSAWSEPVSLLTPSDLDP
The target in test [23] is rHuman Notch-1/Fc Chimera, CF (R&D Systems Cat#3647-TK) (human) (UniProt P46531). Described as above.
The target of test [24] is rHuman P-Cadherin/Fc Chimera, CF (R&D Systems Cat#861-PC) (human) (UniProt P22223). Described as above.

For “Fab VH1-46_IGHD6-13*01_IGHJ4*01 & A27_IGKJ1*01”, the ECL signal was determined as 6940 in test [1], 6310 in test [2] and 5470 in test [3].
Turning to “Fab VH1-46_IGHD6-13*01_IGHJ4*01 & B3_IGKJ1*01”, the ECL signal is 1500 in [4]; 1230 in [5]; 1140 in test [6]; 528 in [7]; 525 in test [8]; 971 in test [9]. Moreover, the ECL signal in [10] came to 912; in test [11], 1560; in test [12], 2780; in test [13], 2320; in [14], 3450; in test [15], 407. Moreover, the ECL signal in [16] is 695; in test [17], 715; in test [18] it was 1170; in test [19], 2780; in [20], 4500.
Regarding “Fab VH4-34_IGHD7-27*01_IGHJ4*01 & L5_IGKJ1*01”, the ECL signal was found to be 1810 in [21], 2560 in [22], 2880 in [23] and 3180 in test [24].

The values above are taken from patent publication US20120058906A1.
